Data taken from publication PMC9973331, “DNA Methylation and RNA-DNA Hybrids Regulate the Single-Molecule Localization of a DNA Methyltransferase on the Bacterial Nucleoid”.

How the values were obtained:
DnmA[Y465A] = target: T1, DnmA[Y465A] (Bacillus subtilis, UniProt O31504 1-879, Y465A); assay: EMSA; EMSA: 5x buffer 500 mM Tris-HCl pH 8, 1.25 M NaCl, 10% glycerol (1x: 100 mM Tris, 250 mM NaCl, 2% glycerol), 5 nM probe, 30 min at 25 C; 6% native PAGE in 1x TBE on ice; conditions: protein: recombinant; tags: His-SUMO tag (pE-SUMO) removed by SUMO protease; label: 5' IRDye700 on strand 1; 5' IRDye800 on strand 2; blunt
T1 sequence: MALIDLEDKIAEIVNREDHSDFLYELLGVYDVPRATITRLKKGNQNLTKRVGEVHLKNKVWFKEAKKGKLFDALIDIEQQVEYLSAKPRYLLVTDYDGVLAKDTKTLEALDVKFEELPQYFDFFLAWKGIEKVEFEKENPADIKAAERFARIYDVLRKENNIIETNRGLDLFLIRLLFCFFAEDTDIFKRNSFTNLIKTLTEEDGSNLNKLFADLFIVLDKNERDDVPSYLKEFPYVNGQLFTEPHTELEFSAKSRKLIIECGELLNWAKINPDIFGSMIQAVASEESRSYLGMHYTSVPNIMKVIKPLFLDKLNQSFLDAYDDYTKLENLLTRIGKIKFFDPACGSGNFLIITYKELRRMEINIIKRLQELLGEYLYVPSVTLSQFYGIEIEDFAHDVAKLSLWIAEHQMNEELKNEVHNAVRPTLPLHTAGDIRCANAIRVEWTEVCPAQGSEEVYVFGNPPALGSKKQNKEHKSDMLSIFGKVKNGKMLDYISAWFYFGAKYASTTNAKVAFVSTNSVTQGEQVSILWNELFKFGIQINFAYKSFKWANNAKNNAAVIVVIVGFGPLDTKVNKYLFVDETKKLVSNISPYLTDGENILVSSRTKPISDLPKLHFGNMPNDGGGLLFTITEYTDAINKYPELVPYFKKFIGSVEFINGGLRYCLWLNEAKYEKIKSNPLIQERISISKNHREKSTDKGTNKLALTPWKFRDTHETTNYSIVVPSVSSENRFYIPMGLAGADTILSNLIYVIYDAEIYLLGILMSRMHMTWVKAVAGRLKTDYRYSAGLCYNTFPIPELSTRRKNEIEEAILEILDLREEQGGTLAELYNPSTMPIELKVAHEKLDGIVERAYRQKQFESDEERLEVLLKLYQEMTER

DnmA[6AA*] = target: T2, DnmA[6AA*] (Bacillus subtilis, UniProt O31504 1-879, K470A;M620A;N748A;L780A;K781A;D783A); assay: as above; conditions: protein: recombinant; tags: His-SUMO tag (pE-SUMO) removed by SUMO protease; label: 5' IRDye700 on strand 1; 5' IRDye800 on strand 2; blunt
T2 sequence: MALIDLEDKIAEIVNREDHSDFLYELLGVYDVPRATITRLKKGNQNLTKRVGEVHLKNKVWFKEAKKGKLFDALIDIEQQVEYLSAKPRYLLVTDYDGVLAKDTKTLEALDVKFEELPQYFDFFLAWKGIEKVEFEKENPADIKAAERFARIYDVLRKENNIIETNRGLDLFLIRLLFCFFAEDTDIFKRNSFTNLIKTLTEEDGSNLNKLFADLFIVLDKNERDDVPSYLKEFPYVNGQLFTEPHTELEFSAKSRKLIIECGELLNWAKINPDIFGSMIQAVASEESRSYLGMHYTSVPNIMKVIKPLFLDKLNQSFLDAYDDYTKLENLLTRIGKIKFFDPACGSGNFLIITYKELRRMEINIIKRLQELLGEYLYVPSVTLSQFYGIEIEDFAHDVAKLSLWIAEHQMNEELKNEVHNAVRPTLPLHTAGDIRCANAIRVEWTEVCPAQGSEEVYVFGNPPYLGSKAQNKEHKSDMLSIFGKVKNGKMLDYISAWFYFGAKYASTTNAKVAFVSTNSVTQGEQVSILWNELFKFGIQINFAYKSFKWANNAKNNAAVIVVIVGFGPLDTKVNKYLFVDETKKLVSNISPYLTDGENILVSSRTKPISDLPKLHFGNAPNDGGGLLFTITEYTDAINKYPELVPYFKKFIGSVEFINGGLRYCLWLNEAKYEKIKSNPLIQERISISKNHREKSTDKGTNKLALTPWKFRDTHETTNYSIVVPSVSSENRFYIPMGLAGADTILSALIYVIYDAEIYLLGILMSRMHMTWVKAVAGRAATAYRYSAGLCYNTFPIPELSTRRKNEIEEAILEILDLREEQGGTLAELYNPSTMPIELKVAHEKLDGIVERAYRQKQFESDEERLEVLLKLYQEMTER

B1: unmethylated dsDNA (oTMN67/oTMN68) (dsDNA)
DNA 1: CAAAACAGGATATGAAATAGTATTGGACGAGAGCTTTTTGGTGGCTTATACTATAG
DNA 2: CTATAGTATAAGCCACCAAAAAGCTCTCGTCCAATACTATTTCATATCCTGTTTTG
apparent K (half saturation) (DnmA[Y465A]): 164 ± 26.8 nM
apparent K (half saturation) (DnmA[6AA*]): 458 ± 185 nM
